Laboratory results: US20140087995A1 (published 2014)
Numbered stars: 1 amine (or outer) side, 2 acyl side, 3 side chain; on linkers, the order of the positions; unused ones are H or OH. Bridge positions count the residues as written; N and C are the ends. Side chains are listed from the residue outwards. Ends that are not written are not given here. * marks the point of attachment. C20 diacid = O=C(O)CCCCCCCCCCCCCCCCCCC(=O)*; γGlu = O=C(O)[C@H](CCC(=O)[*:2])N[*:1]

T1: human amylin receptor (amylin 3(a) receptor: human calcitonin receptor plus RAMP-3) (human, UniProt P30988 25-474; O60896 24-148, limits assumed)
T1 sequence (looked up) 1: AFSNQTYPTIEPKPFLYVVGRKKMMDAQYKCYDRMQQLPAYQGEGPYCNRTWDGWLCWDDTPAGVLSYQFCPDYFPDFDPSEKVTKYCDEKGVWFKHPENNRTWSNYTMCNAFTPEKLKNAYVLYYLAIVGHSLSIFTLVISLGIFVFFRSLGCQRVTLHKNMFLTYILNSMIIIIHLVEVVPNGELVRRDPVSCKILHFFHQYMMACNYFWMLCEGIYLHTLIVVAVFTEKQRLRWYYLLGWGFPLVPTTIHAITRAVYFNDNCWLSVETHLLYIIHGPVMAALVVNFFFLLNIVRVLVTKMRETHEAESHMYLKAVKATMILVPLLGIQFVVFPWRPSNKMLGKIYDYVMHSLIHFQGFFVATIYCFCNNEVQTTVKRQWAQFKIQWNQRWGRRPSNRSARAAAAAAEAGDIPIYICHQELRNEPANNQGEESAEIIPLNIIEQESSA
T1 sequence (looked up) 2: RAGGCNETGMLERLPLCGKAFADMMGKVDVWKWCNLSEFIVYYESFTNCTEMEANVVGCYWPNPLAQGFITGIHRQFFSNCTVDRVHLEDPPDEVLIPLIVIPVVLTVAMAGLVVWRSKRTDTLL

T2: human calcitonin receptor (human, UniProt P30988 25-474)
T2 sequence (looked up): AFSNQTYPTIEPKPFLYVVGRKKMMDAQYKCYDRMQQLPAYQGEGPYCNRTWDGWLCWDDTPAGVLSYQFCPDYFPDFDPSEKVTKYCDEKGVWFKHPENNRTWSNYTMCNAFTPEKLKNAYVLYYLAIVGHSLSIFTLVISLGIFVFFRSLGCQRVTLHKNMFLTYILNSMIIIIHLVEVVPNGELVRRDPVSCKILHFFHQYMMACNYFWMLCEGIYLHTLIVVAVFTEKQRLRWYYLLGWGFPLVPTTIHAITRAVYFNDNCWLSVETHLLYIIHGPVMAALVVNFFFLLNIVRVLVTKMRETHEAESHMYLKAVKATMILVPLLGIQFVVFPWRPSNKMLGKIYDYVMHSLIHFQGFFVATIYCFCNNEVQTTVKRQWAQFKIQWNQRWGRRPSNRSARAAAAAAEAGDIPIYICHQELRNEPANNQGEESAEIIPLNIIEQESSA

T3: human calcitonin receptor (human, UniProt P30988 25-474)
T3 sequence (looked up): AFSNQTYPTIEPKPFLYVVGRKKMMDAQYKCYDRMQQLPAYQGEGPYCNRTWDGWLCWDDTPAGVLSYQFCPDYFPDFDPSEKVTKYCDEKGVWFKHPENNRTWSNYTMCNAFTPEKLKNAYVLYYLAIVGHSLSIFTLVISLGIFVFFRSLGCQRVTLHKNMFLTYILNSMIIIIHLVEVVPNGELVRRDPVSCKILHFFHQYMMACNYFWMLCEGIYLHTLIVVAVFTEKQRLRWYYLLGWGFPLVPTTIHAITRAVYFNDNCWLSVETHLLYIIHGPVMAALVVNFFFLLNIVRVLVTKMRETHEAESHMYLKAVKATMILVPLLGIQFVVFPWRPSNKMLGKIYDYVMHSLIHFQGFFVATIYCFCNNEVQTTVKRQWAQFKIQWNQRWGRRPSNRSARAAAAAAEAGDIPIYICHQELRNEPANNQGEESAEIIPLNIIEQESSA

T4: human amylin receptor (amylin 3(a) receptor: human calcitonin receptor with RAMP-3) (human, UniProt P30988 25-474; O60896 24-148, limits assumed)
T4 construct: whole, on cells; Whole cells in the luciferase assay (Assay II a); also called hAmylin-R; hAmylinR
T4 sequence (looked up) 1: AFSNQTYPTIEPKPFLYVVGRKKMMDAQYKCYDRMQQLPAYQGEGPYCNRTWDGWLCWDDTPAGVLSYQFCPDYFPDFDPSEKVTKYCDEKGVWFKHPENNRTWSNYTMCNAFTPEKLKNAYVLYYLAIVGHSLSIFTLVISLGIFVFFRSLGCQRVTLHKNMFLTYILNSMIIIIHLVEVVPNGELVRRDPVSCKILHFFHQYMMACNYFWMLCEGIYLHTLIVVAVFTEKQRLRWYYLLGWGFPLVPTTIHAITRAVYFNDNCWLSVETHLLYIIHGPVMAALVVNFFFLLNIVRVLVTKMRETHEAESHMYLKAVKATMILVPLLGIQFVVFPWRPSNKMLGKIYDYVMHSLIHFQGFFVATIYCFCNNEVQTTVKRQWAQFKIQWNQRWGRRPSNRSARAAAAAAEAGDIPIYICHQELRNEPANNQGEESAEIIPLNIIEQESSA
T4 sequence (looked up) 2: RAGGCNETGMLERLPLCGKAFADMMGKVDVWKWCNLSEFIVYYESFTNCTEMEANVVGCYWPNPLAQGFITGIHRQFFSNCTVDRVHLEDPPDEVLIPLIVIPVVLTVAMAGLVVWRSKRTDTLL


Legend:
[1] = target: T1, human amylin receptor (amylin 3(a) …); assay: cell-based or functional assay
[2] = target: T2, human calcitonin receptor; assay: cell-based or functional assay
[3] = target: T1, human amylin receptor (amylin 3(a) …); assay: SPA competition binding, membranes of Amylin 3(a)/CRE-luc BHK cells, displacement of 125I-rat amylin (Assay V)
Procedure, shortened: (§1)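 Cell membranes were prepared by homogenisation in Na-HEPES/EDTA buffer, pH 7.4, and stored at −80° C. They were then coupled to SPA beads at 35 ng/μL final and exposed to compounds in assay buffer containing CaCl2, MgCl₂, OA and Tween20. After 120 min at 25° C, plates were counted and IC₅₀ derived.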

[4] = target: T3, human calcitonin receptor; assay: cell-based or functional assay; remark: listed apart in the source
[5] = target: T4, human amylin receptor (amylin 3(a) …); assay: SPA competition binding on membranes of BHK cells with human calcitonin receptor + RAMP-3; displacement of 125I-rat amylin (Assay V)
Procedure, shortened: as §1

| hAmylin-R funct. EC50 [1] [nM] | Ratio hCT/hAmylin funct. (hCTR EC50 against hAmylin-R EC50) [2] | hCTR funct. EC50 [2] [nM] | IC50 [3] [nM] | Ratio hCT/hAmylin funct. [4] [ratio] | hCTR funct. EC50 (pM) [4] [pM] | IC50 [5] [nM] | Binder |
| --- | --- | --- | --- | --- | --- | --- | --- |
| 0.386 | 8.9 | 3.43 | 0.597 | – | – | – | {C20 diacid-γGlu-γGlu}-KCNTATCATQRLAEFLRHSSPNFGAIPSSTNVGSNTY-NH2 (disulfide 2-7; SMILES CC[C@H](C)[C@H](NC(=O)[C@H](C)NC(=O)CNC(=O)[C@H](Cc1ccccc1)NC(=O)[C@H](CC(N)=O)NC(=O)[C@@H]1CCCN1C(=O)[C@H](CO)NC(=O)[C@H](CO)NC(=O)[C@H](Cc1c[nH]cn1)NC(=O)[C@H](CCCNC(=N)N)NC(=O)[C@H](CC(C)C)NC(=O)[C@H](Cc1ccccc1)NC(=O)[C@H](CCC(=O)O)NC(=O)[C@H](C)NC(=O)[C@H](CC(C)C)NC(=O)[C@H](CCCNC(=N)N)NC(=O)[C@H](CCC(N)=O)NC(=O)[C@@H](NC(=O)[C@H](C)NC(=O)[C@@H]1CSSC[C@H](NC(=O)[C@H](CCCCN)NC(=O)CC[C@H](NC(=O)CC[C@H](NC(=O)CCCCCCCCCCCCCCCCCCC(=O)O)C(=O)O)C(=O)O)C(=O)N[C@@H](CC(N)=O)C(=O)N[C@@H]([C@@H](C)O)C(=O)N[C@@H](C)C(=O)N[C@@H]([C@@H](C)O)C(=O)N1)[C@@H](C)O)C(=O)N1CCC[C@H]1C(=O)N[C@@H](CO)C(=O)N[C@@H](CO)C(=O)N[C@H](C(=O)N[C@@H](CC(N)=O)C(=O)N[C@H](C(=O)NCC(=O)N[C@@H](CO)C(=O)N[C@@H](CC(N)=O)C(=O)N[C@H](C(=O)N[C@@H](Cc1ccc(O)cc1)C(N)=O)[C@@H](C)O)C(C)C)[C@@H](C)O, also called compound 15) |
| – | – | – | – | 24.9 | 3640 | 0.281 | K([γGlu-C20 diacid])CNTATCATQRLADFLRHSSPNFGAIPSSTNVGPRTY-NH2 (disulfide 2-7; N-terminus assumed; SMILES CC[C@H](C)[C@H](NC(=O)[C@H](C)NC(=O)CNC(=O)[C@H](Cc1ccccc1)NC(=O)[C@H](CC(N)=O)NC(=O)[C@@H]1CCCN1C(=O)[C@H](CO)NC(=O)[C@H](CO)NC(=O)[C@H](Cc1c[nH]cn1)NC(=O)[C@H](CCCNC(=N)N)NC(=O)[C@H](CC(C)C)NC(=O)[C@H](Cc1ccccc1)NC(=O)[C@H](CC(=O)O)NC(=O)[C@H](C)NC(=O)[C@H](CC(C)C)NC(=O)[C@H](CCCNC(=N)N)NC(=O)[C@H](CCC(N)=O)NC(=O)[C@@H](NC(=O)[C@H](C)NC(=O)[C@@H]1CSSC[C@H](NC(=O)[C@@H](N)CCCCNC(=O)CC[C@H](NC(=O)CCCCCCCCCCCCCCCCCCC(=O)O)C(=O)O)C(=O)N[C@@H](CC(N)=O)C(=O)N[C@@H]([C@@H](C)O)C(=O)N[C@@H](C)C(=O)N[C@@H]([C@@H](C)O)C(=O)N1)[C@@H](C)O)C(=O)N1CCC[C@H]1C(=O)N[C@@H](CO)C(=O)N[C@@H](CO)C(=O)N[C@H](C(=O)N[C@@H](CC(N)=O)C(=O)N[C@H](C(=O)NCC(=O)N1CCC[C@H]1C(=O)N[C@@H](CCCNC(=N)N)C(=O)N[C@H](C(=O)N[C@@H](Cc1ccc(O)cc1)C(N)=O)[C@@H](C)O)C(C)C)[C@@H](C)O) |
